Laboratory results as given in doi:10.1101/798371 (bioRxiv, 2019).
“And” between values parts separate entries of the source, which are not always exact repeats. Equal values may be shown once. Read-outs that look alike come from different tables or passages of the source.

B1: Tom22 (natural protein, S. cerevisiae, UniProt P49334 1-152, looked up)
chain: MVELTEIKDDVVQLDEPQFSRNQAIVEEKASATNNDVVDDEDDSDSDFEDEFDENETLLDRIVALKDIVPPGKRQTISNFFGFTSSFVRNAFTKSGNLAWTLTTTALLLGVPLSLSILAEQQLIEMEKTFDLQSDANNILAQGEKDAAATAN
B2: Tom7 (natural protein, S. cerevisiae, UniProt P53507 1-60, looked up)
chain: MSFLPSFILSDESKERISKILTLTHNVAHYGWIPFVLYLGWAHTSNRPNFLNLLSPLPSV
B3: Tom40 (natural protein, S. cerevisiae, UniProt P23644 1-387, looked up)
chain: MSAPTPLAEASQIPTIPALSPLTAKQSKGNFFSSNPISSFVVDTYKQLHSHRQSLELVNPGTVENLNKEVSRDVFLSQYFFTGLRADLNKAFSMNPAFQTSHTFSIGSQALPKYAFSALFANDNLFAQGNIDNDLSVSGRLNYGWDKKNISKVNLQISDGQPTMCQLEQDYQASDFSVNVKTLNPSFSEKGEFTGVAVASFLQSVTPQLALGLETLYSRTDGSAPGDAGVSYLTRYVSKKQDWIFSGQLQANGALIASLWRKVAQNVEAGIETTLQAGMVPITDPLMGTPIGIQPTVEGSTTIGAKYEYRQSVYRGTLDSNGKVACFLERKVLPTLSVLFCGEIDHFKNDTKIGCGLQFETAGNQELLMLQQGLDADGNPLQALPQL
B4: core TOM complex (monomeric unit: Tom40, Tom22, Tom5, Tom6, Tom7) (complex, S. cerevisiae)
chain 1: B3 chain
chain 2: B1 chain
chain 3: MFGLPQQEVSEEEKRAHQEQTEKTLKQAAYVAAFLWVSPMIWHLVKKQWK
chain 4: MDGMFAMPGAAAGAASPQQPKSRFQAFKESPLYTIALNGAFFVAGVAFIQSPLMDMLAPQL
chain 5: B2 chain
B5: Tom6 (natural protein, S. cerevisiae, UniProt P33448 1-61, looked up)
chain: B4 chain 4

Legend:
Tom40 [1] = molecular target: B3; experiment: cryo-EM structure
Tom22 = molecular target: B1; experiment: cryo-EM structure
Tom40 [2] = molecular target: B3; experiment: cryo-EM structure; remark: listed apart in the source
cryo-EM structure [3] = molecular target: the molecule itself; experiment: cryo-EM structure
cryo-EM structure [4] = molecular target: the molecule itself; experiment: cryo-EM structure; remark: listed apart in the source
SEC = molecular target: the molecule itself; experiment: SEC

B1
binding result (Tom40 [1]): binds

MFGLPQQEVSEEEKRAHQEQTEKTLKQAAYVAAFLWVSPMIWHLVKKQWK (natural protein, S. cerevisiae, UniProt P80967 1-50, looked up) [Tom5]
binding result (Tom22): binds | binding result (Tom40 [2]): binds

B2
binding result (Tom40 [2]): binds

B3
binding result (cryo-EM structure [3]): binds

B4
stoichiometry N (cryo-EM structure [4]): 4 and 3 | stoichiometry N (SEC): 2

B5
binding result (cryo-EM structure [4]): binds | binding result (Tom40 [2]): binds
